Test: protease stability score; higher = more stable; yeast display proteolysis, trypsin and chymotrypsin;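 also: log10 excess protease needed over predicted unfolded state with 0 meaning unfolded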

Sequence | protease stability score
EEKLRERIKKFIDIMQTGNPEELEKQADEDAHFEIGEKRVHGMDDYAKEVQRELEDAQVRINVDSVRASNGRVEAHATMSETRNGQPRTAELKLEAQFHNGRIKHVRLHKHQ | -0.059
EEKNQEHAEQVFRAYKDGDPNQIQRLLDPNAHARIGDKQLHGREQAREIMHRLRRHLQMDLKLQDVKAEGDKLQLNARAKHDDNGRPNDVKITITFDLQNGRIKSMSVKMSG | 0.022
EEKNQHVAQQWLEMVQNGDPRKAKQQFDKDARVKIGDKELNGREEIVRQFEREQREMRVDIKDYKIDVNGDKVTVRLHVEVQSNGTPTTRDYVVHMQVHNGRVQMVIFRSDG | 0.747
EEKNRKVFEEAMKAFQTNDKDQAERMFDENATVKIGDQEIHGNKQIREHIRTMEEHMRLEIKSIDLKVSNGRVHANITFVEEHNGEPKTLRLHVRAEVDNGTIESMQFNDDG | 0.159
EEKQDTRLEEFVSAVLKGDEQEAVDLADPNADMHIGEWHVRGREQIRKFIDQLRKRIRVQVDEMHVDNQGENVTVRATFVLDHNGVPMEFEIEYRLVVDNGRLKSVHARVPEEVKNRRRR | 0.294
EEKQKTHVERFIEILREGDPQKAREMADKDAKFVYGDKSVHGMDEFRRQVERRNKQIHIDLKVREVDVHGNNVKIIIDAQEDHNGNPDSFKADMEVVYHNGRIKSASMDKQT | 0.074
EENEVEKIMQVAHSGDFDSLVELADPNVTIKVGDKEWHGREHATEFFEKMKRHIDHVDVKSMSAQGDKITVRAHFNVNGDTLDFNLHIVISNGRIQSVKIQVTSHELRKTLTDQLG | 1.44
EENNLELAHRVMENIQTNNPDEVVKQLDPNARIQVGDKVYHGREQARKMVEDLIDRLRVQIDSVDLEVQGDKAQLEFTQIEEHNGRPNSAKFIVDVTVHNGRVQNMEFREHK | 0.891
EEQAQENLENLIRAIEHGDHKTAKELMDPNVKFHYGDKQYHGRERVTDFIRTVHEQMDVEIESFDLKLENGRAKAKMTAVYDVNGKPVKISVTYVATVHNGKVKHLQRRVDPSQQREVKG | 1.02
EEQAVEVMNRYIRALQTGSKQDLRDNMDPNVKAIYGDSVIHGREEIARHLVKTMKDIRVENDVRDMRFDGDKIELRAKWVFEHDGRPRTNKYVVHAVAHDGKIKHINLQEDQ | -0.058
EEQLKHRLRTYIEALQTGDEKKMVEMVDPNAHIRVGDSTIHGREELRKWVQHLQREIRFQVKIRSIDVSGEHLDVKAEVRYDFNGQPVRDTLNISAEASNGTFTDLRLHIDEDVLRKIKS | 1.16
EEQVEELMHRIMTAIKTNNPDDLKRNIDPNAKIRIGDTVIHGMEEYVHQFEEEVKQLRIEIIDVQQDIKGDKVVVKIRFRRQHNGRPDETVTVFTAKMDNGKVKSLDFQEDG | 1.22
EEQVRELLRKALEAKQEGDEKKLTKLFDPNAKVDVGDKTFHGMEDIARTIVTELKQIRVRLEIKHYSMRGDHLRVDAEVEEEHNGEPQTRRVIIYMHVQGDKITKQKIEDRQ | 1.08
EERANDAARRFLEAIDRNNPDEAVKNFDPNARFRYGDKTVTGRTEVQELLEHLLKQMRITIQSVRVDARGDKVTVHLTVVVDVNGQPERHEMTVIANIHNGRIKEMEVRVDPDEQRERKR | 0.575
EERDEAENAIRRFLEAVEEGDEDNLREQADPNAKFDVGDKTVHGMKSYARQQIEERERIDHVDYRISSVRLEGNRADVKVKFKARVDGRTKTATATINMQRHNGRMKIKEMKIN | 0.018
EERDMEKMDTLVRDNDWKKMKNNVDPNAQVRIGEHEYTGKQQASTAFDILQKQVDHVDIHSFKNHGDQVEVHAILRYNGQNFQVNFRFRVHNGRFKKFSVEFTSEQQNKIMEEWLG | -0.039
EEREVEEMQKILQHGDPKEFEDNMDPNADVEIGDQQYRGRETIAQVLQKFRDQIDHRHIEEVHIHGDHAVIDVVATVNGQDLKYIIVVKVENGKLKSARLQATDPRVKHRMQEVYE | 0.32
EERLQELAERWWKARRTGDPHKIRDLLDKDVRVEYGNKSIHGRENIAHEIVRQLKHLRLDEKVERIDRSNGHVRATLSVTVNINGQPYTYRFELRIRAHNGKVKKIELRMPEEVVRRLDT | 1.73
EERQQELAKTFMEAVQSNDTTQLKRMFDKHAKVTVGDKTVSGREDASKWLSKLHKESRVQLRDVKVEVSGNKIDIKVRFEVQHNGKPREVTREMEMTFHNGKIKDLRATRTE | 0.394
EERVNSVAEQFLDAVHTGDPNRVREQMDKDARMHVGDTTLHGRENMANHWKTLLDEMRITFHDYRIRVTGEEVEIRADVQYNHNGRPKRRVLTYTVEADNGKIHNWKVQEDS | 0.472
